Experimental data reported in patent US20250297232A1, “BACTERIAL MYELOPEROXIDASE-CATALASE AND APPLICATIONS THEREOF” (priority 2022, published 2025).

Tested on: E. coli ATCC 25922
Experiment: Microbicidal activity: counting colonies on Petri dishes
Format: cell-based
Conditions: 1 h contact with 1.10^6 CFU/mL, 25 mM SCN^−, pH7.4; enzyme alone: wt RbMPO 300 nM or GOxaspniger 25 nM
Procedure: 10 mL of TSB medium (pH7.4) was inoculated with a freshly obtained colony of E. coli ATCC 25922, and the culture was incubated at 37° C. and 190 rpm overnight. In the morning, 25 mL of TSB medium were inoculated with the previous day's pre-culture to obtain an OD620 nm of 0.07 at TO. When the bacterial culture reached the exponential phase, the bacterial solution was diluted 10-fold in TSB in order to reach 1.10^6 CFU/mL. This dilution was then contacted with the enzyme solution for 1 hour (in a final volume of 1 mL). Further dilutions were then made (10^−1, 10^−4, 10−5, 10^−6). 100 μL of these solutions were spread on a Petri dish containing TSB agar medium and placed at 37° C. overnight. The next day, the surviving colonies were counted and the number of CFU/mL was calculated using the formula below: […]

B1: wt RbMPO: novel bacterial heme peroxidase (myeloperoxidase-catalase) of about 78 KDa from Rhodopirellula baltica, SEQ ID NO: 1, produced recombinantly in E. coli (protein, listed as Rhodopirellula baltica)
chain: MLFWSKRTRKHPGRKRRRLRSEQLESRQLLAADFGGYRHNIYDAEDVNDDGRVSAIDALLVINAMTSETSRDENVFTDVNGDGRRSALDALRVINRIERGDVFPIDTSGDEDLNTLLPEMPSEVRSIDGSGNNPNDHLWGSVGQRLIRMAPAAYGDGISTLAGANRPSAREVSNVLSAMNTSQVLNDRGLSAFVYVWGQFIDHDLGLTESDEHGEAIDISVPEGDLWFDPMGSGEAVIPMTRTPIADGTGTSVGNPAQQFNQITAFIDGSMVYGSDAATAERLRTFAGGRLAISDNGLLPMDESGMVIAGDVRASENVGLTAIQTLFVREHNRLADEIFAADPEATDEEIYQRARLVVASLIQSITYNEFLPALLGQRAMDSYRGYDASVNPGIANEFSTAAFRLGHSTLRDEVGFMSNDGRESKDEMELKDAFFHASMLEETGIDSLLKFDASVQAQEIDLAVVDSLRNFLFGPPGAGGLDLVAMNIQRGRDHGLSDYNTTRQAYGLDRVETFDQITGDVELQQKLASLYGTVDNIDLWVGLMAEDHQHDASVGELTGLIIADQFQRTRDGDRFFYKNVLTDSEVESIERSTLADLIERNTSVDGLQENVFFMQVELRGRVILASSIPPNTMPSEVREEEIRGVSGMAIELIDASGKLVDSTVSDQHGNYRFRALSETGDYQVRLSESGEAMDVLVAHGAERIRGLDFIVLA
  surviving bacteria: 13,850,000±4,454,773 CFU/mL
